Holding throughout (assay): FRET or BRET; acceptor-bleaching FRET at kinetochores of transfected human cells (HeLa, HEp-2, U2OS), in vivo or in situ; donor EGFP, acceptor mCherry; E_FRET of a bleached region compared with EVAR of an unbleached region
Background: BRET reads energy transfer from a luciferase to a nearby fluorophore.

For assay [1], the target named is CENP-S-mCherry (UniProt Q8N2Z9).
For assay [2], the target named is mCherry-CENP-S (UniProt Q8N2Z9).
For assay [3], the target named is EGFP-CENP-U (UniProt Q71F23).
Chain of UniProt Q71F23 (Q71F23 whole entry): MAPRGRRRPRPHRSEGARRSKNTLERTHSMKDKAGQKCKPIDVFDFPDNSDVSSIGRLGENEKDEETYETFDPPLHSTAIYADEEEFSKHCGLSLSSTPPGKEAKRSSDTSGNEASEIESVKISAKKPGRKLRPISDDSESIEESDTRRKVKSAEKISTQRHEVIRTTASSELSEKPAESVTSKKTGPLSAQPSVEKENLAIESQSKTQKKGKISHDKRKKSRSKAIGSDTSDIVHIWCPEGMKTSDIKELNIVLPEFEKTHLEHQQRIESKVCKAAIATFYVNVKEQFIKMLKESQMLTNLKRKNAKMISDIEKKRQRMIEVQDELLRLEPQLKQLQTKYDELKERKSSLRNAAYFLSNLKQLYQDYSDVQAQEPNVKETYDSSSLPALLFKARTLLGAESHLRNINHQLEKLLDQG
In assay [4] the target is mCherry-CENP-B (UniProt P07199).
Assay [5] addresses mCherry-H3.1 (human) (UniProt P68431).
Assay [6] concerns the target CENP-B-mCherry (UniProt P07199).

For “CENP-M-EGFP (from UniProt Q9NSP4 1-180) (natural protein)”, the mean E FRET % in assay [1] was 3.49%; in assay [2] it was 4%. For the same substance, the ΔE % in assay [1] was 3.91%; in assay [2], 4.78%.

In assay [3], “CENP-M-mCherry (from UniProt Q9NSP4 1-180) (natural protein)” yielded a mean E FRET % of 6.08% and a ΔE % of 7.86%.

Turning to “CENP-W-EGFP (from UniProt Q5EE01 1-88) (natural protein)”, the mean E FRET % in assay [4] was 5.07%; in assay [5], 3.7%. In addition, the ΔE % in assay [4] was determined as 4.4%; in assay [5] it was 5.8%.

In the case of “EGFP-CENP-W (from UniProt Q5EE01 1-88) (natural protein)”, in assay [6], the mean E FRET % is 4.37% and the ΔE % was 3.6%.

Values taken from publication PMC4394509.
